Experiment [1] concerns the target T1, KDM5C(1-765) (human) (UniProt P41229).
T1 sequence: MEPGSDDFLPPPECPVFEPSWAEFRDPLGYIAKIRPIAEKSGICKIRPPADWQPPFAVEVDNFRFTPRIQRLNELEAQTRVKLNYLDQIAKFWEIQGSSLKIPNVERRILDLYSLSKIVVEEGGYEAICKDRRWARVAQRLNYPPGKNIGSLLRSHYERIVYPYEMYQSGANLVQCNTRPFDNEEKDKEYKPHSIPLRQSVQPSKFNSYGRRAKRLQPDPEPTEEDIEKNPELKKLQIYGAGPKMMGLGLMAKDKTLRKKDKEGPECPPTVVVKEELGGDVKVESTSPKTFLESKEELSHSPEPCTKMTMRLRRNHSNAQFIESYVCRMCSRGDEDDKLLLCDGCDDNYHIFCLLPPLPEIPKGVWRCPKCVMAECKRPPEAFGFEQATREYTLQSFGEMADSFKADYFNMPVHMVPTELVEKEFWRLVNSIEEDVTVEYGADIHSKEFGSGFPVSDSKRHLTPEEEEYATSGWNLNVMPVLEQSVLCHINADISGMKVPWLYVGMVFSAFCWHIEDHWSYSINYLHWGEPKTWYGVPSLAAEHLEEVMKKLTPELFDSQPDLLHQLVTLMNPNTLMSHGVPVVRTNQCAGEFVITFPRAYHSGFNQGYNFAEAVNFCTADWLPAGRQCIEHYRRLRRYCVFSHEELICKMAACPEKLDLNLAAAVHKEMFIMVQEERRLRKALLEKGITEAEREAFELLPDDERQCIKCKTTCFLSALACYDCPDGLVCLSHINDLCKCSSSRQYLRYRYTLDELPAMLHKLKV

Experiment [2] concerns the target KDM6B(1,141-1,590) (human) (UniProt O15054).
The target of experiment [3] is T2, KDM3A(515-1,317) (human) (UniProt Q9Y4C1).
T2 sequence: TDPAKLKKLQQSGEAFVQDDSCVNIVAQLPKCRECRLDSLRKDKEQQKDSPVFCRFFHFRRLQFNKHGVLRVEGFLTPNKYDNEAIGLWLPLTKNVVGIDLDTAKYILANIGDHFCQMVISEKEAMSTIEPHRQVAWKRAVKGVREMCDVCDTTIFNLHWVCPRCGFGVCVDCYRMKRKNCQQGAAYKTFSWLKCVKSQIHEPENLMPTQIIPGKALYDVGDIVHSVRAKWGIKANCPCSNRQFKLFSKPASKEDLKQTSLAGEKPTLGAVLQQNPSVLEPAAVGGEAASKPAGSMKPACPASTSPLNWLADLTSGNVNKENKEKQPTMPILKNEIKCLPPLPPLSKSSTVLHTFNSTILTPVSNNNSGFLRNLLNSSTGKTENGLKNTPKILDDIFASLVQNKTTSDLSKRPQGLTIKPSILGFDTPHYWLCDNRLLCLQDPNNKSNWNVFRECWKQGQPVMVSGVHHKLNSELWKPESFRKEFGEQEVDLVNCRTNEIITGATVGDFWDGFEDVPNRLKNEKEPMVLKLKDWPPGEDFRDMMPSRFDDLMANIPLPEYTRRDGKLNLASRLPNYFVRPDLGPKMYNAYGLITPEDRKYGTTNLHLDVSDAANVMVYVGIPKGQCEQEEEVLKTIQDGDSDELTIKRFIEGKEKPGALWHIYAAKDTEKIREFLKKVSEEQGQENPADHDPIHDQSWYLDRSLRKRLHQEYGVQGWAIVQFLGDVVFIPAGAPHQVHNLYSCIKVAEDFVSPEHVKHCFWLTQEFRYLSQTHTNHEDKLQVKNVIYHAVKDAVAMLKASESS

For experiment [4], the target named is T3, KDM4E(1-337) (human) (UniProt B2RXH2).
T3 sequence: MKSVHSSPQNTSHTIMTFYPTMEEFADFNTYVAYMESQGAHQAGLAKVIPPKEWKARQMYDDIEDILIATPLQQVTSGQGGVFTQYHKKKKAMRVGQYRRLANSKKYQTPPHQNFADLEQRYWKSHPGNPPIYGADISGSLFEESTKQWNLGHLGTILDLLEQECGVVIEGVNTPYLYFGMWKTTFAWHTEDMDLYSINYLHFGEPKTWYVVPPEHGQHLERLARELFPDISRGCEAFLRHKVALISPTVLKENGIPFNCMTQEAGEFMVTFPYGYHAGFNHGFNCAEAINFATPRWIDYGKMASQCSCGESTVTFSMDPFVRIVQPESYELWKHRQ

Sequence of KDM6B(1,141-1,590) (human) (O15054 1141-1590): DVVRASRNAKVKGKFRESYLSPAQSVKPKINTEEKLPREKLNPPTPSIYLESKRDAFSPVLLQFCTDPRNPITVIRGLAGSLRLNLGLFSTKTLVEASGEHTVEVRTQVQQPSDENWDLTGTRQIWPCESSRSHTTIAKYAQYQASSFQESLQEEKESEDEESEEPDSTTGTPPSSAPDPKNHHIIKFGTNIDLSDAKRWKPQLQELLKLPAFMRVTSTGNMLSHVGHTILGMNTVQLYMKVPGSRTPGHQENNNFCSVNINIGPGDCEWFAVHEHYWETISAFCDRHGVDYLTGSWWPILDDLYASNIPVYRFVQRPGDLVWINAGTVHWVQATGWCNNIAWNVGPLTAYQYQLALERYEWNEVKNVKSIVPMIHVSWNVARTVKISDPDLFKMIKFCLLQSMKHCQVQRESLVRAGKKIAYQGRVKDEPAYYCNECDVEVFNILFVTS

As to “H3(1-15)K4Rme2a (from UniProt P68431 2-16) (peptide)”, the apparent KM, formaldehyde dehydrogenase-coupled demethylation assay in experiment [1] was 29 µM.
Consider “H3(1-15)K4me3 (from UniProt P68431 2-16) (peptide)”, for which, in experiment [1], the apparent KM, formaldehyde dehydrogenase-coupled demethylation assay was found to be 7.6 µM.
On to “H3(14-34)K27Rme2a (from UniProt P68431 15-35) (peptide)”, for which, in experiment [2], the apparent KM, formaldehyde dehydrogenase-coupled demethylation assay turned out to be 676 µM.
For the substance “H3(1-15)K9Rme2a (from UniProt P68431 2-16) (peptide)”, the apparent KM, formaldehyde dehydrogenase-coupled demethylation assay in experiment [3] was determined as 11.6 µM; in experiment [4], 66 µM.
For “H3(1-15)K9Rme (from UniProt P68431 2-16) (peptide)” the same measures were 12.1 µM and 169 µM.
For the substance “H3(1-15)K9me2 (from UniProt P68431 2-16) (peptide)”, the apparent KM, formaldehyde dehydrogenase-coupled demethylation assay in experiment [3] was determined as 44.5 µM.
Take “H3(1-15)K4Rme2s (from UniProt P68431 2-16) (peptide)”: the apparent KM, formaldehyde dehydrogenase-coupled demethylation assay in experiment [1] was found to be 21.1 µM.
“H3(14-34)K27me3 (from UniProt P68431 15-35) (peptide)”: the apparent KM, formaldehyde dehydrogenase-coupled demethylation assay in experiment [2] is 6.7 µM.
Consider “H3(1-15)K9Rme2s (from UniProt P68431 2-16) (peptide)”, for which the values for the apparent KM, formaldehyde dehydrogenase-coupled demethylation assay in experiment [3] and in experiment [4] were 23.7 µM and 101 µM, respectively.
Take “H3(1-15)K9me3 (from UniProt P68431 2-16) (peptide)”: the apparent KM, formaldehyde dehydrogenase-coupled demethylation assay in experiment [4] turned out to be 17.8 µM.
